Experimental data published in article PMC11405395 (The EMBO Journal, 2024).

Legend:
Conditions in all cases: both partners purified
[1] = biological target: T1, GINS tetramer (Sld5, Psf1, Psf2, Psf3), S. cerevisiae (S. cerevisiae, UniProt Q03406 1-294; Q12488 1-208; P40359 1-213; Q12146 1-194); assay: co-IP; purified proteins mixed: 10 nM FLAG-Rrm3 with 15 nM GINS, 10 min on ice; anti-FLAG M2 magnetic beads; 25 mM Hepes-KOH pH 7.6, 200 mM KOAc, 0.02% NP-40-S, 0.1 mg/mL BSA, 1 mM DTT, 10 mM Mg(OAc)2; immunoblotting
T1 construct: Sld5, GINS subunit, S. cerevisiae; Psf1, GINS subunit, S. cerevisiae; Psf2, GINS subunit, S. cerevisiae; Psf3, GINS subunit, S. cerevisiae; pJL005 with TwinStrep-Psf3; also called tetrameric GINS complex; source: purified as previously described (Yeeles et al, 2015; Lewis et al, 2022); copies: + + +
T1 sequence (looked up) 1: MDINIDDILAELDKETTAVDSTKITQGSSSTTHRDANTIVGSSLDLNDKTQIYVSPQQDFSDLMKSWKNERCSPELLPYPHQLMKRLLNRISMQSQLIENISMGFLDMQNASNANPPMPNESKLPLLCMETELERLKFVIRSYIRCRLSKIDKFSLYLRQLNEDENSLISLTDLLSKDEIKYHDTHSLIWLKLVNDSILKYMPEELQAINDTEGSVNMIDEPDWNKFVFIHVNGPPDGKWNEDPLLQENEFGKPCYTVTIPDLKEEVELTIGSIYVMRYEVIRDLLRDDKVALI
T1 sequence (looked up) 2: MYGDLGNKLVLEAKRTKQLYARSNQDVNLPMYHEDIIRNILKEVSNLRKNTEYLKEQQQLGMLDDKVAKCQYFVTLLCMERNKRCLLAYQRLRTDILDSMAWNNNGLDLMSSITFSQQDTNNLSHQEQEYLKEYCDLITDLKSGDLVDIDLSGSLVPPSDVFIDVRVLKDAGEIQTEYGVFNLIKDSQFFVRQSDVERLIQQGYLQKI
T1 sequence (looked up) 3: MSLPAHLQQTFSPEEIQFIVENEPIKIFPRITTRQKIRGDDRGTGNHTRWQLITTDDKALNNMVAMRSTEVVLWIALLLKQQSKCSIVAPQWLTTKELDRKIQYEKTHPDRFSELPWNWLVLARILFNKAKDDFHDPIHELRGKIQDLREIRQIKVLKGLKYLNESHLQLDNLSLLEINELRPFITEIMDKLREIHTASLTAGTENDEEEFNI
T1 sequence (looked up) 4: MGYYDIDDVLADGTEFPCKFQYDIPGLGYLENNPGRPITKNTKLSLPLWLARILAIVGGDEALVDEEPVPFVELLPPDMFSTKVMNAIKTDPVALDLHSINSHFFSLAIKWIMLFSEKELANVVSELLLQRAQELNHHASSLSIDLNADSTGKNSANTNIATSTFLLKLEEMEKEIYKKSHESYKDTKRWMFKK

[2] = biological target: T2, DNA polymerase ε (Pol2, Dpb2, Dpb3, Dpb4), S. cerevisiae (S. cerevisiae, UniProt P21951 1-2222; P24482 1-689; P27344 1-201; Q04603 1-196); assay: co-IP; purified proteins mixed: 10 nM FLAG-Rrm3 with 15 nM Pol ε, 10 min on ice; anti-FLAG M2 magnetic beads; 25 mM Hepes-KOH pH 7.6, 400 mM KOAc, 0.02% NP-40-S, 0.1 mg/mL BSA, 1 mM DTT, 10 mM Mg(OAc)2; immunoblotting
T2 construct: Pol2, catalytic subunit of DNA polymerase ε, S. cerevisiae; Dpb2, second largest subunit of DNA polymerase ε, S. cerevisiae; Dpb3, subunit of DNA polymerase ε, S. cerevisiae; Dpb4, subunit of DNA polymerase ε, S. cerevisiae (DPB4-TEV-CBP); also called Polε; Pol ε; source: S. cerevisiae strain yAJ2, purified as previously described (Yeeles et al, 2015); copies: + + +

[3] = biological target: T3, CMGE (budding yeast CMG helicase, Cdc45-Mcm2-7-GINS, together with DNA polymerase ε) (S. cerevisiae, UniProt P29469 1-868; P24279 1-971; P30665 1-933; P29496 1-775; P53091 1-1017; P38132 …); assay: co-IP; purified proteins mixed: 1–10 nM Rrm3/Rrm3N-BacPif1/BacPif1 with 15 nM CMG and 30 nM Pol ε, 10 min on ice; anti-Sld5 beads, 30 min 4 °C; 25 mM Hepes-KOH pH 7.6, 400 mM KOAc, 0.02% NP-40-S, 0.1 mg/mL BSA, 1 mM DTT, 10 mM Mg(OAc)2; immunoblotting
T3 construct: Mcm2, S. cerevisiae, subunit of CMG; Mcm3, S. cerevisiae, subunit of CMG (CBP-TEV-MCM3); Mcm4, S. cerevisiae, subunit of CMG; Mcm5, S. cerevisiae, subunit of CMG; Mcm6, S. cerevisiae, subunit of CMG; Mcm7, S. cerevisiae, subunit of CMG; Cdc45, S. cerevisiae, subunit of CMG (CDC45iFLAG2, internal FLAG tag; detected by anti-FLAG immunoblotting); Sld5, S. cerevisiae, GINS subunit of CMG …

Measured: binding result

T2 sequence (P21951 whole entry, chain 1 of 4): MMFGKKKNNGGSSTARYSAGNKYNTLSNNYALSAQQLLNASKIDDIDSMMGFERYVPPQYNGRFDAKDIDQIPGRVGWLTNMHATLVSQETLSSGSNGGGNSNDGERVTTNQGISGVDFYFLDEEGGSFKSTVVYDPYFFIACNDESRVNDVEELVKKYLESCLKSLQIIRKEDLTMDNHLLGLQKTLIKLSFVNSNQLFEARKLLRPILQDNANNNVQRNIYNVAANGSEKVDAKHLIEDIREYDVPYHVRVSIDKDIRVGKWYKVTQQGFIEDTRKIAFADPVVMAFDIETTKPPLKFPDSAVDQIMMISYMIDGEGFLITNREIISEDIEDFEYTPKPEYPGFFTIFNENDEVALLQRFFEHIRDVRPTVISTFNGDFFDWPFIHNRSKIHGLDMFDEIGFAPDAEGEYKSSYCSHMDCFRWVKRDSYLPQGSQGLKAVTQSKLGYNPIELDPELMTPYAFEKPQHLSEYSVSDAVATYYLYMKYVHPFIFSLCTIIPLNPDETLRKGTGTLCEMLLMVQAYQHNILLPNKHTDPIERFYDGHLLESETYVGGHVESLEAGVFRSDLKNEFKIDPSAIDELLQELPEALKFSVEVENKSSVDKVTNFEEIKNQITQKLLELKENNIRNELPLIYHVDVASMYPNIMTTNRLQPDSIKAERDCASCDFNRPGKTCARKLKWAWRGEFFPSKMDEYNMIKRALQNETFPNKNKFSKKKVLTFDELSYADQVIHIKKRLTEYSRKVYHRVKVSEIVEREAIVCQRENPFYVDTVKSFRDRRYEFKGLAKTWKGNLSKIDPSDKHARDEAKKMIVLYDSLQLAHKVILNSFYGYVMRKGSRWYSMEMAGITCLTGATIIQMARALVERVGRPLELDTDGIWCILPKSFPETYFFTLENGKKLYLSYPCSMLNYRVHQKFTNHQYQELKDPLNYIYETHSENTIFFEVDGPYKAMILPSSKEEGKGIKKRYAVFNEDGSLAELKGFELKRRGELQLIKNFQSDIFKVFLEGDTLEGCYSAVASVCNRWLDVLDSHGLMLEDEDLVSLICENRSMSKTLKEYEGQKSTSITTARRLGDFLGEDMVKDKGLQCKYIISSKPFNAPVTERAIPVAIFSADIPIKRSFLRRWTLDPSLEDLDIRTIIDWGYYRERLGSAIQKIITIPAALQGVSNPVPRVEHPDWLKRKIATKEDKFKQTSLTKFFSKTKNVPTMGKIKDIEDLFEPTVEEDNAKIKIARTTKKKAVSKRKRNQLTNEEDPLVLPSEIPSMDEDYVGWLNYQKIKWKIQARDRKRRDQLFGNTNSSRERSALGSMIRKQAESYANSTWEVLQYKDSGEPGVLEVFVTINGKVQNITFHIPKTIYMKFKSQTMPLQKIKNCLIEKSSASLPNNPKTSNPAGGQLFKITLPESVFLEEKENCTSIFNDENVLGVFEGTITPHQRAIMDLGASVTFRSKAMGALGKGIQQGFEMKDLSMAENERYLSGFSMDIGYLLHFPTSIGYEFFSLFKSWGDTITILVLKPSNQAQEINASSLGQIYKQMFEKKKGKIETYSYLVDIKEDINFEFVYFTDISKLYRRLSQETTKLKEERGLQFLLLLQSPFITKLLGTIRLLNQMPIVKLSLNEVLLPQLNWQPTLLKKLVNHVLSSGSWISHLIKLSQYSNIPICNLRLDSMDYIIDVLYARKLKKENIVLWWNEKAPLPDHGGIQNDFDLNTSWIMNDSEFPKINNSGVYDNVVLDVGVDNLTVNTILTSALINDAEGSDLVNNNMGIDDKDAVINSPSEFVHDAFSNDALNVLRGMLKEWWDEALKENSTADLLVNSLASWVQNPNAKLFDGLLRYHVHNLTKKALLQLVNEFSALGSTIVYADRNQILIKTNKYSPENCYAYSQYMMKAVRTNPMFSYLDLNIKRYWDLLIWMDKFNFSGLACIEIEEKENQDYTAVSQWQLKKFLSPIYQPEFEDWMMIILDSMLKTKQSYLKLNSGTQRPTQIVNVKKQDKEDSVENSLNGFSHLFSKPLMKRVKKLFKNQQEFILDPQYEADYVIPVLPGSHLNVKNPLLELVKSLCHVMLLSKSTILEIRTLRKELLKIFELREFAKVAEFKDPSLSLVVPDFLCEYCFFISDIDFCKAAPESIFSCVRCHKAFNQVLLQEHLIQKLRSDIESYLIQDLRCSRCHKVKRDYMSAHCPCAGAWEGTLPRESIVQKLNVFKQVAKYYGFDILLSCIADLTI
T2 sequence (P24482 whole entry, chain 2 of 4): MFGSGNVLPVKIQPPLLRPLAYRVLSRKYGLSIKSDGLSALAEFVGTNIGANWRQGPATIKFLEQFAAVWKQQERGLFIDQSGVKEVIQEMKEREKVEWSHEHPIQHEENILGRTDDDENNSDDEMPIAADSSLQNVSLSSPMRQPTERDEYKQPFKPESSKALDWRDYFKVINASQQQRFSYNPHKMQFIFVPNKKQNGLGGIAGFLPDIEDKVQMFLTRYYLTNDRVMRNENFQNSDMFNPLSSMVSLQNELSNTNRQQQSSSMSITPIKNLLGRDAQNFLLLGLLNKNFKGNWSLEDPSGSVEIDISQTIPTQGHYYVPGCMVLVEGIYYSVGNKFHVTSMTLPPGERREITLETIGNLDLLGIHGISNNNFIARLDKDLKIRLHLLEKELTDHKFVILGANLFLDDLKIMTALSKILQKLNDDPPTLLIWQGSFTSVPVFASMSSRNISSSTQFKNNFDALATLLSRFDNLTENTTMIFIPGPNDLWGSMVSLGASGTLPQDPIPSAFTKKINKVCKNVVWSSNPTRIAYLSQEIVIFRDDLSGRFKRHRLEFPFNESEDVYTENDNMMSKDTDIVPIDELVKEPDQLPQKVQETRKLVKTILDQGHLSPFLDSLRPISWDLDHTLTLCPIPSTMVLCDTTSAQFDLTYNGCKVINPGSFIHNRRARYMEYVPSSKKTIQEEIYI
T2 sequence (P27344 whole entry, chain 3 of 4): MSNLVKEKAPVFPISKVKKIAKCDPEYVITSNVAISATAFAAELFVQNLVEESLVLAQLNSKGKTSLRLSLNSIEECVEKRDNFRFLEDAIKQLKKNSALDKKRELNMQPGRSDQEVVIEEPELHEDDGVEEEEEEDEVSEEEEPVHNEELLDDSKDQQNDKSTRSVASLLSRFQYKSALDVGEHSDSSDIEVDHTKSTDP
T2 sequence (Q04603 whole entry, chain 4 of 4): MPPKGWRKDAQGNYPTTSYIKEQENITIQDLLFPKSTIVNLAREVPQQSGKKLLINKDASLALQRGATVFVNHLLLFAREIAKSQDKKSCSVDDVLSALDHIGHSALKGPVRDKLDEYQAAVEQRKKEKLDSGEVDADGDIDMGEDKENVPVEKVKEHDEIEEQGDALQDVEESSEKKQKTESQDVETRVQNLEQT

B1: Rrm3 (wild-type, FLAG-tagged) (enzyme, S. cerevisiae, UniProt P38766 1-723, looked up)
chain: MFRSHASGNKKQWSKRSSNGSTPAASASGSHAYRQQTLSSFFMGCGKKSAAASKNSTTIIDLESGDEGNRNITAPPRPRLIRNNSSSLFSQSQGSFGDDDPDAEFKKLVDVPRLNSYKKSSRSLSMTSSLHKTASASTTQKTYHFDEDETLREVTSVKSNSRQLSFTSTINIEDSSMKLSTDSERPAKRSKPSMEFQGLKLTVPKKIKPLLRKTVSNMDSMNHRSASSPVVLTMEQERVVNLIVKKRTNVFYTGSAGTGKSVILQTIIRQLSSLYGKESIAITASTGLAAVTIGGSTLHKWSGIGIGNKTIDQLVKKIQSQKDLLAAWRYTKVLIIDEISMVDGNLLDKLEQIARRIRKNDDPFGGIQLVLTGDFFQLPPVAKKDEHNVVKFCFESEMWKRCIQKTILLTKVFRQQDNKLIDILNAIRYGELTVDIAKTIRNLNRDIDYADGIAPTELYATRREVELSNVKKLQSLPGDLYEFKAVDNAPERYQAILDSSLMVEKVVALKEDAQVMMLKNKPDVELVNGSLGKVLFFVTESLVVKMKEIYKIVDDEVVMDMRLVSRVIGNPLLKESKEFRQDLNARPLARLERLKILINYAVKISPHKEKFPYVRWTVGKNKYIHELMVPERFPIDIPRENVGLERTQIPLMLCWALSIHKAQGQTIQRLKVDLRRIFEAGQVYVALSRAVTMDTLQVLNFDPGKIRTNERVKDFYKRLETLK
notes: Rrm3 Pif1-family 5'-3' DNA helicase, S. cerevisiae; helicase domain printed as residues 230-723; Gene codon optimised for expression; a TEV site lies between the 3FLAG tag and Rrm3; also called WT Rrm3; full-length Rrm3; source: S. cerevisiae strain yTDK9, purified (anti-FLAG M2 resin, HiTrap heparin); not shown: 3FLAG, N-terminal, kept
binds: [1] | [2] | [3]
